Data taken from the supplement of paper PMC7125110.
± gives the standard error. For part of these data: This sample holds only a part of the variants without activity.

B1: glmS ribozyme (parent)
chain: AUAAAAGCGCCAGAACUACAGAAAUGUAGUUGACGAGGAGGAGGUUUAUCGAAUUUUCGGCGGAUGCCUCCAAA

Experiments:
Details in all cases: with glucosamine-6-phosphate
[1] = variants of: B1; assay: kcat; higher = faster cleavage; RNA array
Summary of the method: (§1)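 The measurements used barcoded ribozyme variants on sequenced MiSeq chips, transcribed in situ by E. coli RNA polymerase and tracked at 37 °C with a hybridised Cy3 probe. Glucosamine-6-phosphate, 40 μM to 10 mM in HEPES/KCl/Mg(OAc)2 buffer, was flowed in while tiles were imaged over ~14 h. Baseline-normalised signals, also normalised to non-cleaving reference variants, gave per-tile medians that were fit to one- or two-exponential decays for kobs. kcat and KM resulted from weighted Michaelis–Menten fits across concentrations.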

[2] = variants of: B1; assay: KM; higher = weaker cofactor use; RNA array
Summary of the method: as §1

[3] = variants of: B1; assay: self-cleavage kobs at 40 uM GlcN6P; higher = faster cleavage; RNA array
Summary of the method: as §1

[4] = variants of: B1; assay: self-cleavage kobs at 160 uM GlcN6P; higher = faster cleavage; RNA array
Summary of the method: as §1

[5] = variants of: B1; assay: self-cleavage kobs at 640 uM GlcN6P; higher = faster cleavage; RNA array
Summary of the method: as §1

[6] = variants of: B1; assay: self-cleavage kobs at 10000 uM GlcN6P; higher = faster cleavage; RNA array
Summary of the method: as §1

[7] = variants of: B1; assay: self-cleavage kobs at 2500 uM GlcN6P; higher = faster cleavage; RNA array
Summary of the method: as §1

Variant	kcat [1] [s⁻¹]	KM [2] [µM]	self-cleavage kobs at 40 uM GlcN6P [3] [s⁻¹]	self-cleavage kobs at 160 uM GlcN6P [4] [s⁻¹]	self-cleavage kobs at 640 uM GlcN6P [5] [s⁻¹]	self-cleavage kobs at 10000 uM GlcN6P [6] [s⁻¹]	self-cleavage kobs at 2500 uM GlcN6P [7] [s⁻¹]
A14G U54C	0.151 ± 0.0085	4420 ± 270	0.00134 ± 0.00025	0.00536 ± 0.00096	0.0185 ± 0.0064	0.105 ± 0.042	
A39U G40U	0.00237 ± 0.00036	997 ± 220	9.94e-05 ± 1.5e-05	0.000285 ± 4.1e-05	0.00112 ± 0.00016	0.00209 ± 0.00044	0.00163 ± 0.00025
G41C C68U	< 1e-05		< 1e-05		< 1e-05		
U55C C70G	< 1e-05		< 1e-05				
A33U G51A	< 1e-05	394 ± 130	< 1e-05				
U57A C58G	7.04e-05 ± 3.8e-06	4690 ± 580				4.8e-05 ± 1.2e-05	2.42e-05 ± 1.1e-05
G40C C70G	0.000147 ± 2.2e-05	973 ± 420			5.48e-05 ± 8.7e-06	0.000128 ± 1.3e-05	0.000163 ± 2.9e-05
G66C C68U	0.00021 ± 1.1e-05	1890 ± 220			5.11e-05 ± 1e-05	0.000173 ± 2.3e-05	0.000132 ± 2.7e-05
G29U C34G	< 1e-05		< 1e-05			< 1e-05	
U45C A48C	< 1e-05			< 1e-05			
G32U G41A	0.000221 ± 1.2e-05	4720 ± 590			2.98e-05 ± 1.1e-05	0.00015 ± 1.4e-05	7.3e-05 ± 1.5e-05
G29A U56A	0.00321 ± 0.0012		4.94e-05 ± 9.7e-06	0.000108 ± 2.2e-05	0.000389 ± 7.9e-05	0.00255 ± 0.00036	0.000941 ± 0.00015
G44A U55A	0.000528 ± 5e-05	2150 ± 420		5.44e-05 ± 2.2e-05	0.000113 ± 2.3e-05	0.000437 ± 6.1e-05	0.000286 ± 6.8e-05
A12C A42U	0.000217 ± 1.2e-05	1230 ± 230		3.19e-05 ± 1e-05	6.67e-05 ± 1.1e-05	0.000192 ± 1.2e-05	0.00016 ± 2.1e-05
G13A U45C	3.07e-05 ± 4.9e-06			< 1e-05		2.82e-05 ± 1.3e-05	
G13U A52G	7e-05 ± 5.1e-06	817 ± 370	< 1e-05			6.34e-05 ± 7e-06	6.21e-05 ± 1.3e-05
G59A G66A	0.000247 ± 1.9e-05						
A6U U54C	0.000261 ± 4.2e-05	2260 ± 670			5.25e-05 ± 1.2e-05	0.000195 ± 4.6e-05	0.000165 ± 3.3e-05

Variant	kcat [1] [s⁻¹]	KM [2] [µM]	self-cleavage kobs at 40 uM GlcN6P [3] [s⁻¹]	self-cleavage kobs at 160 uM GlcN6P [4] [s⁻¹]	self-cleavage kobs at 640 uM GlcN6P [5] [s⁻¹]	self-cleavage kobs at 10000 uM GlcN6P [6] [s⁻¹]	self-cleavage kobs at 2500 uM GlcN6P [7] [s⁻¹]
A39U U46G	0.00673 ± 0.0011	4400 ± 920	5.61e-05 ± 1.4e-05	0.000227 ± 6.1e-05	0.000968 ± 0.00018	0.00476 ± 0.0014	0.0023 ± 0.00049
G13U	0.00254 ± 0.00046	3670 ± 840	3.52e-05 ± 1.3e-06	0.000104 ± 3.4e-06	0.000355 ± 7.3e-06	0.00186 ± 5.8e-05	0.00118 ± 5e-05
C8U G38A	< 1e-05	371 ± 120	< 1e-05				
G7U U55A	< 1e-05			< 1e-05	< 1e-05		< 1e-05
A52C C68A	2.96e-05 ± 7.8e-06				3.82e-05 ± 1.2e-05		3.05e-05 ± 1.2e-05
U46A G66A	0.000792 ± 5.9e-05	2830 ± 440			0.000156 ± 3.3e-05	0.00063 ± 7.9e-05	0.000321 ± 8.6e-05
U57G C71U	6.07e-05 ± 3e-05				3.26e-05 ± 1.2e-05	4.47e-05 ± 6.6e-06	1.65e-05 ± 8e-06
C10A A12C U56A	0.000168 ± 4.1e-05				7.12e-05 ± 3e-05	0.00015 ± 2.7e-05	0.000306 ± 0.00011
U56A U57A	0.000351 ± 3.9e-05	3720 ± 820			4.44e-05 ± 1.7e-05	0.00025 ± 4.4e-05	0.000155 ± 3.3e-05
G32A U49A	< 1e-05						
U47G C50U	3.97e-05 ± 1.6e-06	433 ± 100				3.69e-05 ± 1.2e-05	3.64e-05 ± 1.5e-05
C10A	< 1e-05	559 ± 95				< 1e-05	
A15G A33U	0.0001 ± 9.2e-06	2530 ± 740	< 1e-05			7.91e-05 ± 6.4e-06	5.25e-05 ± 7e-06
G13A U69G	6.29e-05 ± 1.9e-05			4.26e-05 ± 1.5e-05	7.5e-05 ± 1.3e-05		6.99e-05 ± 1.7e-05
A15U U31G U47A	0.000799 ± 0.00019	5260 ± 2100			0.000105 ± 2.5e-05	0.000537 ± 8.1e-05	0.000221 ± 5.7e-05
A33C G66U	2.18e-05 ± 4.2e-07	2420 ± 190	< 1e-05				
C16G U47C	0.00027 ± 0.00013				0.000231 ± 7.9e-05		0.000192 ± 5.1e-05
